Earlier results as cited in paper PMC6653659.

Biological target: glucocorticoid receptor LBD (Homo sapiens) (UniProt P04150)

- Kd: 1500 nM
Substance: glucocorticoid receptor LBD (from UniProt P04150)
